Results from the RNAGym collection of RNA variant scans (doi:10.1093/molbev/msab373).

B1: Azoarcus group I ribozyme (parent)
chain: GUGCCUUGCGCCGGGAAACCACGCAAGGGAUGGUGUCAAAUUCGGCGAAACCUAAGCGCCCGCCCGGGCGUAUGGCAACGCCGAGCCAAGCUUCGGCGCCUGCGCCGAUGAAGGUGUAGAGACUAGACGGCACCCACCUAAGGCAAACGCUAUGGUGAAGGCAUAGUCCAGGGAGUGGCGAAAGUCACACAAACCGG

Variants of: B1
Assay: reverse-splicing fitness (ratio to wild type); higher = more active; in vitro selection; Mg2+ level not given
Method in brief: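 An in vitro group I ribozyme library with randomized positions was T7-transcribed and gel-purified. In triplicate, 10 pmol RNA in EPPS pH 7.5 was reacted with 50 pmoles of a 30-nt RNA substrate for 1 h at 37 °C across several added MgCl2 levels (1–48 mM), then stopped with EDTA. Products were reverse transcribed from a substrate-complementary primer, PCR-amplified and sequenced (HiSeq 4000). Fitness is a variant's read proportion after selection over that before, normalised to wild type.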

| Variant | reverse-splicing fitness |
| --- | --- |
| C82U A111C A120G C150G C169G U176G | 0.00455 |
| C82U A111C A120G C150G C169G U176C | 0.00488 |
| C82U A111C A120G C150G C169G U176A | 0.00584 |
| C82U A111C A120G C150G U176G | 0.00294 |
| C82U A111C A120G C150G U176C | 0.013 |
| C82U A111C A120G C150G U176A | 0.00789 |
| C82U A111C A120G C169A U176C | 0.019 |
| C82U A111C A120G C169A U176G | 0.00418 |
| C82U A111C A120G C169A U176A | 0.0141 |
| C82U A111C A120G A145U C150G C169G U176G | 0.00386 |
| C82U A111C A120G A145U C150G C169G U176C | 0.00446 |
| C82U A111C A120G A145U C150G C169G U176A | 0.0063 |
| C82U A111C A120U A145G C150A C169A U176G | 0.00278 |
| C82U A111C A120U A145G C150A C169A U176C | 0.00409 |
| C82U A111C A120U A145G C150A C169A U176A | 0.00664 |
| C82U A111C A120G A145C C150G C169U | 0.00662 |
| C82U A111C A120G A145C C150G C169G | 0.00642 |
| C82U A111C A120G A145C C150G C169A | 0.00748 |
| C82U A111C A120U A145C U176C | 0.00705 |
| C82U A111C A120U A145C U176G | 0.00296 |
| C82U A111C A120U A145C U176A | 0.00655 |

| Variant | reverse-splicing fitness |
| --- | --- |
| C82U A111C A120G A145U C169G U176A | 0.00938 |
| C82U A111C A120G A145U C169G U176C | 0.0109 |
| C82U A111C A120G A145U C169G U176G | 0.00395 |
| C82U A111C A120G A145U C150U C169U U176C | 0.0107 |
| C82U A111C A120G A145U C150U C169U U176A | 0.0158 |
| C82U A111C A120G A145U C150U C169U U176G | 0.00431 |
| C82U A111C A120G A145C C169A U176G | 0.00336 |
| C82U A111C A120G A145C C169A U176C | 0.00533 |
| C82U A111C A120G A145C C169A U176A | 0.00788 |
| C82U A111C A120G C150U C169G U176C | 0.0161 |
| C82U A111C A120G C150U C169G U176A | 0.0121 |
| C82U A111C A120G C150U C169G U176G | 0.00441 |
| C82U A111C A120G C150A U176C | 0.0182 |
| C82U A111C A120G C150A U176G | 0.00579 |
| C82U A111C A120G C150A U176A | 0.0152 |
| C82U A111C A120U A145C C150A C169A U176C | 0.00295 |
| C82U A111C A120U A145C C150A C169A U176G | 0.00183 |
| C82U A111C A120U A145C C150A C169A U176A | 0.00222 |
| C82U A111C A120G A145C C150U C169A | 0.00786 |
| C82U A111C A120G A145C C150U C169G | 0.00662 |
| C82U A111C A120G A145C C150U C169U | 0.00593 |

| Variant | reverse-splicing fitness |
| --- | --- |
| C82U A111C A120G A145G C150G C169A U176G | 0.00775 |
| C82U A111C A120G A145G C150G C169A U176C | 0.011 |
| C82U A111C A120G A145G C150G C169A U176A | 0.0117 |
| C82U A111C A120G A145G C169A U176G | 0.00456 |
| C82U A111C A120G A145G C169A U176A | 0.0193 |
| C82U A111C A120G A145G C169A U176C | 0.0272 |
| C82U A111C A120G C150U C169U | 0.00841 |
| C82U A111C A120G C150U C169G | 0.00848 |
| C82U A111C A120G C150U C169A | 0.00877 |
| C82U A111C A120G A145U C150U C169U | 0.00803 |
| C82U A111C A120G A145U C150U C169A | 0.00896 |
| C82U A111C A120G A145U C150U C169G | 0.00846 |
| C82U A111C A120G A145U C150U C169A U176G | 0.00451 |
| C82U A111C A120G A145U C150U C169A U176A | 0.0111 |
| C82U A111C A120G A145U C150U C169A U176C | 0.00758 |
| C82U A111C A120G C150G C169A U176A | 0.0104 |
| C82U A111C A120G C150G C169A U176C | 0.00939 |
| C82U A111C A120G C150G C169A U176G | 0.0058 |
| C82U A111C A120G A145G C150U C169A U176G | 0.00542 |
| C82U A111C A120G A145G C150U C169A U176A | 0.0136 |
| C82U A111C A120G A145G C150U C169A U176C | 0.0142 |

| Variant | reverse-splicing fitness |
| --- | --- |
| C82U A111C A120G A145G C169G U176A | 0.019 |
| C82U A111C A120G A145G C169G U176G | 0.00408 |
| C82U A111C A120G A145G C169G U176C | 0.028 |
| C82U A111C A120U A145C C150U C169U U176G | 0.00224 |
| C82U A111C A120U A145C C150U C169U U176C | 0.00255 |
| C82U A111C A120U A145C C150U C169U U176A | 0.00314 |
| C82U A111C A120U A145C C150U U176A | 0.00424 |
| C82U A111C A120U A145C C150U U176G | 0.0029 |
| C82U A111C A120U A145C C150U U176C | 0.00591 |
| C82U A111C A120G A145U C169U | 0.00765 |
| C82U A111C A120G A145U C169A | 0.00767 |
| C82U A111C A120G A145U C169G | 0.00905 |
| C82U A111C A120G A145C C169U U176C | 0.00886 |
| C82U A111C A120G A145C C169U U176G | 0.00308 |
| C82U A111C A120G A145C C169U U176A | 0.0137 |
| C82U A111C A120G A145U C150A C169U U176C | 0.0106 |
| C82U A111C A120G A145U C150A C169U U176G | 0.00435 |
| C82U A111C A120G A145U C150A C169U U176A | 0.0157 |
| C82U A111C A120U | 0.0257 |
| C82U A111C A120G | 0.0151 |
